2 molecules from patent JP2004000228A can be followed below.

The experiment deals with anti-Fas monoclonal antibody HFE7A produced by mouse-mouse hybridoma HFE7A (FERM BP-5828). The experiment in a line: peptide competition: 200 μg peptide preincubated with 0.25 μg HFE7A, then flow cytometry on WR19L12a cells. In general terms: Flow cytometry measures light scatter and fluorescence of single cells or particles in a stream.

KCRCKPNFFC [P110]: the inhibition of the binding of HFE7A to WR19L12a cells was 60%.

Regarding EINCTRTQNT [P100], the inhibition of the binding of HFE7A to WR19L12a cells was determined as 50%.
